Measurements reported in patent US12589171B2, “177-Lu labeled peptide for site-specific uPAR-targeting” (priority 2012, dated 2026).
Like-named read-outs stand apart in the source and are kept apart here.

What was measured:
[1] = Toxicity in HT-29 therapy study (body weight, kidney H&E, deaths); format: in vivo, NMRI nude mice; details: HT-29 study
Source text: Results are presented as the mean±SEM, n=6 animals/group. B, H&E staining of kidney sections representing kidney epithelia (top) and glomerulus (Bottom) from each treatment group. […] One pair of kidneys from one animal/group was stained. Scale bar=25 μm, 40× zoom.
Three days after tumor cell inoculation (study day 0), 18 nude mice bearing the human colorectal carcinoma xenograft HT-29 in each flank were randomly divided into three groups consisting of 6 animals each. All animals in each group were first baseline PET/CT scanned with ^18F-FLT (day 0) before being dosed with 20 MBq of either ^177Lu-DOTA-AE105, ^177Lu-DOTA-AE105mut or vehicle. Subsequently, PET/CT scans of all mice in each group were repeated with ^18F-FLT on study day 1, 3 and 6. Second treatment dose (20 MBq) was administrated on day 7, followed by CT-scan day 8, 10 and 14 to measure tumor volumes using manual ROI drawing on the reconstructed images. On day 14, all animals were euthanized and tumors and kidneys were collected and kept for further analysis at −80° C.
uPAR ELISA on resected HT-29 tumors was done as described previously in detail. All results were performed as duplicate measurements. Expression of uPAR in formalin fixed and paraffin embedded tumor tissue was evaluated by immunohistochemical staining (FIG. 7) as previously published. A general histopathology examination was performed on H&E stained kidney tissue (one pair of kidneys from one animal from each treatment group) and performed by a trained pathologist (ODL).

[2] = Biodistribution in Nude mice bearing HT-29 tumor xenograft (gamma-counter); format: in vivo, NMRI nude mice; details: female, NMRI nude, mouse, iv, total radioactivity
Protocol: (§1) Mice were sacrificed at 0.5, 1.0, 2.0, 4.0 and 24.0 h after injection, and a panel of organs, including blood drawn from the heart, was collected, weighed, and analyzed for radioactive content. Mean percent injected dose per gram (% ID/g)±SEM from three mice at each point is presented. A. Chemical structure of ^177Lu-DOTA-AE105. B(top) Biodistribution of ^177Lu-DOTA-AE105 in selected organs/tissues between 0.5 and 24.0 h. B (bottom). […] HT-29 colorectal cancer cells were obtained from the American Type Culture Collection (Manassas, VA, USA) and culture media was obtained from Invitrogen Co. (Carlsbad, CA, USA). The cell line was cultured in Mc.Coy's standard medium supplemented with 10% (v/v) fetal bovine serum and 1% (v/v) penicillin/Streptomycin at 37° C. and 5% CO2. Xenografts of human HT-29 colorectal cancer cells was established by injection of 200 μl cells (1×10^8 cells/ml) suspended in 100 μl Matrigel (BD Biosciences, San Jose, CA, USA), subcutaneously in the left and right flank of female NMRI nude mice obtained from Taconic, under anesthesia by Hypnorm/doricum (Study day −3). All animal experiments were performed under a protocol approved by the Animal Research Committee of the Danish Ministry of Justice. Biodistribution study was performed as previously described. In brief, Nude mice bearing HT-29 xenografts were injected in the tail-vein with 2-3 MBq of ^177Lu-DOTA-AE105 or ^177Lu-DOTA-AE105mut. All mice were euthanized after 0.5, 1, 2, 4 and 24 hr post tracer injection. Blood, tumor and major organs were collected (wet-weight) and the radioactivity was measured using a γ-counter from Perkin Elmer, MA, USA (N=4 mice/group).

HT-29 tumor xenograft = assay: as above; format: in vivo, NMRI nude mice; details: mouse, in vivo
Protocol: as §1

[3] = set-up: species or system NMRI nude mice; details: mouse, in vivo
Source text: The organ uptake values, were time integrated to obtain the residence time per gram tissue for dosimetry calculations. Integration between time 0 and 24 hr was made by the trapezoid method. All time points were used to fit to a double exponential function (2-compartment model), which was used to estimate the residence time from 24 hr to infinity. The extrapolated area was in all organs/tissues <17% of the total calculated area, except kidneys (36.1%) and spleen (30.0%). The radioactive decay of ^177Lu produces mainly low energy […]. The S value for a 1 g sphere (0.0233 mGy/MBq s) was used to calculate the organ doses by multiplying it to the organ residence values as previously described. Based on the biodistribution data of ^177Lu-DOTA-AE105, estimates of the dosimetry were calculated (Table 1). […] However, the uPAR-positive fraction of the HT-29 tumor have previously been found only to be located in periphery of the tumor[25]. […] With this is mind and with the knowledge of the small penetration range of ^177Lu beta radiation (<2 mm), the present inventors calculated an estimate of local uPAR-positive tumor fraction dosimetry of approximate 58 mGy/MBq, thus resulting in the highest exposure for all organs/tissue investigated.

in vivo = assay: in vivo; set-up: species or system NMRI nude mice; details: female, NMRI nude, mouse, iv, total radioactivity
Protocol: For PET/CT imaging, one mouse was injected with ^64Cu-DOTA-AE105 and scanned 1 h post injection. Gamma planar imaging was performed on another mouse 1 h post injection of ^177Lu-DOTA-AE105. Quantitative data were based on manual drawings of region-of-interest analyses on PET/CT data and from analyzed whole tumor tissue using a gamma-counter for planar data. A. Representative images after PET/CT (left) and Gamma planar (right) imaging of HT-29 tumor xenograft. White arrows indicate tumor xenograft. B. […] Quantitative tumor uptake data is presented as % ID/g±SEM based on three animals. Ten min static PET scans were acquired with a microPET Focus 120 scanner (Siemens Medical Solutions, Malvern, PA) 1 hr post i.v. injection of approximately 10 MBq of either ^64Cu-DOTA-AE105 or ^18F-FLT during sevoflurane anesthesia. All PET/CT settings were used as described in detail previously. All results were analyzed using Inveon software (Siemens Medical Solutions) and PET data was expressed as percent of injected dose per gram tissue (% ID/g), with CT-data expressed as cubic millimeters (mm^3). […] This is illustrated in FIG. 2A (left), where a colorectal HT-29 tumor bearing mouse was PET/CT scanned using ^64Cu-DOTA-AE105. […] In FIG. 2A (right) is a representative planar image of a HT-29 tumor bearing mice after injection of ^177Lu-DOTA-AE105.

## CC(C)C[C@H](NC(=O)[C@H](Cc1ccc(O)cc1)NC(=O)C(CCCNC(=N)N)NC(=O)C(CO)NC(=O)C(Cc1ccccc1)NC(=O)[C@H](CC1CCCCC1)NC(=O)[C@H](CC(=O)O)NC(=O)CN1CCN(CC(=O)O)CCN(CC(=O)O)CCN(CC(=O)O)CC1)C(=O)N[C@@H](Cc1c[nH]c2ccccc12)C(=O)N[C@@H](CO)C(N)=O (stereo partly drawn) [^177Lu-DOTA-AE105, metal not drawn]
[1]
  premature deaths: No animals died prematurely
[2]; in vivo
  tissue to tissue ratio at 1 h: 12
  tissue to tissue ratio at 24 h: 3.3
[2]; in vivo, % ID/g Blood
  tissue uptake at 0.5 h: 2.71 %ID/g
  tissue uptake at 1 h: 0.282 %ID/g
  tissue uptake at 2 h: 0.173 %ID/g
  tissue uptake at 4 h: 0.043 %ID/g
  tissue uptake at 24 h: 0.005 %ID/g
[2]; in vivo, % ID/g Bone
  tissue uptake at 0.5 h: 0.696 %ID/g
  tissue uptake at 1 h: 0.699 %ID/g
  tissue uptake at 2 h: 0.267 %ID/g
  tissue uptake at 4 h: 0.258 %ID/g
  tissue uptake at 24 h: 0.32 %ID/g
[2]; in vivo, % ID/g Brain
  tissue uptake at 0.5 h: 0.075 %ID/g
  tissue uptake at 1 h: 0.038 %ID/g
  tissue uptake at 2 h: 0.026 %ID/g
  tissue uptake at 4 h: 0.019 %ID/g
  tissue uptake at 24 h: 0.005 %ID/g
[2]; in vivo, % ID/g Heart
  tissue uptake at 0.5 h: 0.757 %ID/g
  tissue uptake at 1 h: 0.143 %ID/g
  tissue uptake at 2 h: 0.082 %ID/g
  tissue uptake at 4 h: 0.05 %ID/g
  tissue uptake at 24 h: 0.017 %ID/g
[2]; in vivo, % ID/g Intestine
  tissue uptake at 0.5 h: 0.579 %ID/g
  tissue uptake at 1 h: 0.196 %ID/g
  tissue uptake at 2 h: 0.271 %ID/g
  tissue uptake at 4 h: 0.289 %ID/g
  tissue uptake at 24 h: 0.078 %ID/g
[2]; in vivo, % ID/g Liver
  tissue uptake at 0.5 h: 0.686 %ID/g
  tissue uptake at 1 h: 0.249 %ID/g
  tissue uptake at 2 h: 0.243 %ID/g
  tissue uptake at 4 h: 0.284 %ID/g
  tissue uptake at 24 h: 0.149 %ID/g
[2]; in vivo, % ID/g Muscle
  tissue uptake at 0.5 h: 0.58 %ID/g
  tissue uptake at 1 h: 0.084 %ID/g
  tissue uptake at 2 h: 0.047 %ID/g
  tissue uptake at 4 h: 0.053 %ID/g
  tissue uptake at 24 h: 0.01 %ID/g
[2]; in vivo, % ID/g Spleen
  tissue uptake at 0.5 h: 0.924 %ID/g
  tissue uptake at 1 h: 0.262 %ID/g
  tissue uptake at 2 h: 0.222 %ID/g
  tissue uptake at 4 h: 0.303 %ID/g
  tissue uptake at 24 h: 0.109 %ID/g
[2]; in vivo, % ID/g Tumor
  tissue uptake at 0.5 h: 1.78 %ID/g
  tissue uptake at 1 h: 0.614 %ID/g
  tissue uptake at 2 h: 0.17 %ID/g
  tissue uptake at 4 h: 0.17 ± 0.02 %ID/g
  tissue uptake at 24 h: 0.057 %ID/g
[2]; kidney, Kidney, 0.5 h after injection, read-out: % ID/g Kidney
  tissue uptake at 0.5 h: 6.17 %ID/g
[2]; kidney, Kidney, 1.0 h after injection, read-out: % ID/g Kidney
  tissue uptake at 1 h: 2.44 %ID/g
[2]; kidney, Kidney, 2.0 h after injection, read-out: % ID/g Kidney
  tissue uptake at 2 h: 1.91 %ID/g
[2]; kidney, Kidney, 4.0 h after injection, read-out: % ID/g Kidney
  tissue uptake at 4 h: 1.67 %ID/g
[2]; kidney, Kidney, 24 h after injection, read-out: % ID/g Kidney
  tissue uptake at 24 h: 0.839 %ID/g
HT-29 tumor xenograft; female, NMRI nude, iv, 4 h
  % ID/g Tumor: 0.176 % ID/g
HT-29 tumor xenograft
  clearance from blood and organs: fast clearance rate from blood and all organs investigated
[3]
  Dosimetry Blood: 4.9 mGy/MBq
  Dosimetry Bone: 1.8 mGy/MBq
  Dosimetry Brain: 0.4 mGy/MBq
  Dosimetry Heart: 2.0 mGy/MBq
  Dosimetry Intestine: 2.9 mGy/MBq
  Dosimetry Kidney: 52.9 mGy/MBq
  Dosimetry Liver: 2.4 mGy/MBq
  Dosimetry Muscle: 1.2 mGy/MBq
  Dosimetry Spleen: 5.5 mGy/MBq
  Dosimetry Tumor: 5.8 mGy/MBq

## CC(C)C[C@H](NC(=O)[C@H](Cc1ccc(O)cc1)NC(=O)[C@@H](CCCNC(=N)N)NC(=O)[C@@H](CO)NC(=O)[C@H](Cc1ccccc1)NC(=O)[C@H](CC1CCCCC1)NC(=O)[C@H](CC(=O)O)NC(=O)CN1CCN(CC(=O)O)CCN(CC(=O)O)CCN(CC(=O)O)CC1)C(=O)N[C@@H](Cc1c[nH]c2ccccc12)C(=O)N[C@@H](CO)C(N)=O [^64Cu-DOTA-AE105, metal not drawn]
In vivo
  tissue uptake at 1 h: 0.86 ± 0.03 %ID/g
